One molecule from patent US20250002610A1 (Genmab, published 2025) can be followed below.

The target in test [1] is T1, human DR4 (Death Receptor 4), cell surface expressed on human tumor cell lines (human, UniProt O00220 24-468).
T1 construct: also called TNFRSF10A; TRAIL-R1
T1 sequence: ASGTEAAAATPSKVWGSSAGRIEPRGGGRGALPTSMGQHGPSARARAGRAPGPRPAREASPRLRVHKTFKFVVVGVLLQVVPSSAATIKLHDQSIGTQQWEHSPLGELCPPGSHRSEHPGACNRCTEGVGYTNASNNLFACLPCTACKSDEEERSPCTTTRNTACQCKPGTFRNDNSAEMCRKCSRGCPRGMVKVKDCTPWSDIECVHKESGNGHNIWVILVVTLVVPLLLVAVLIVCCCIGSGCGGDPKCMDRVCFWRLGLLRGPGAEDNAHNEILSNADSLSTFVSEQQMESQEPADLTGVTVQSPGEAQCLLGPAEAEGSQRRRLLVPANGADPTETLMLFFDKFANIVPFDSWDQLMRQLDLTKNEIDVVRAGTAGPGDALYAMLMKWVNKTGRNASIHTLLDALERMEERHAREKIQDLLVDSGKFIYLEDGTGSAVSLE
Description: flow cytometry, DLD-1 cells, n = 3.

The target in test [2] is T1, human DR4 (Death Receptor 4), cell …. Description: flow cytometry, DLD-1 cells, n = 2.

B1: BisG1-b12-FERL/DR4-FERR (bispecific antibody, human IgG1, kappa, lambda)
heavy 1: QVQLVQSGAEVKKPGASVKVSCQASGYRFSNFVIHWVRQAPGQRFEWMGWINPYNGNKEFSAKFQDRVTFTADTSANTAYMELRSLRSADTAVYYCARVGPYSWDDSPQDNYYMDVWGKGTTVIVSSASTKGPSVFPLAPSSKSTSGGTAALGCLVKDYFPEPVTVSWNSGALTSGVHTFPAVLQSSGLYSLSSVVTVPSSSLGTQTYICNVNHKPSNTKVDKRVEPKSCDKTHTCPPCPAPEFERGPSVFLFPPKPKDTLMISRTPEVTCVVVDVSHEDPEVKFNWYVDGVEVHNAKTKPREEQYNSTYRVVSVLTVLHQDWLNGKEYKCKVSNKALPAPIEKTISKAKGQPREPQVYTLPPSREEMTKNQVSLTCLVKGFYPSDIAVEWESNGQPENNYKTTPPVLDSDGSFLLYSKLTVDKSRWQQGNVFSCSVMHEALHNHYTQKSLSLSPG
light 1: EIVLTQSPGTLSLSPGERATFSCRSSHSIRSRRVAWYQHKPGQAPRLVIHGVSNRASGISDRFSGSGSGTDFTLTITRVEPEDFALYYCQVYGASSYTFGQGTKLERKRTVAAPSVFIFPPSDEQLKSGTASVVCLLNNFYPREAKVQWKVDNALQSGNSQESVTEQDSKDSTYSLSSTLTLSKADYEKHKVYACEVTHQGLSSPVTKSFNRGEC
heavy 2: QVQLQESGPGLVKPSGTLSLTCAVSGGSISSYSWWSWIRQPPGKGLEWIGELYHSGSTNYNPSLKSRVTISVDKSKNQFSLKLRSVTAADTAVYYCVRGVATIDYWGQGTLVTVSSASTKGPSVFPLAPSSKSTSGGTAALGCLVKDYFPEPVTVSWNSGALTSGVHTFPAVLQSSGLYSLSSVVTVPSSSLGTQTYICNVNHKPSNTKVDKRVEPKSCDKTHTCPPCPAPEFERGPSVFLFPPKPKDTLMISRTPEVTCVVVDVSHEDPEVKFNWYVDGVEVHNAKTKPREEQYNSTYRVVSVLTVLHQDWLNGKEYKCKVSNKALPAPIEKTISKAKGQPREPQVYTLPPSREEMTKNQVSLTCLVKGFYPSDIAVEWESNGQPENNYKTTPPVLDSDGSFFLYSRLTVDKSRWQQGNVFSCSVMHEALHNHYTQKSLSLSPG
light 2: QSALTQPPSASGSPGQSVTISCTGTSSDVGGYNFVSWYQQDPGKAPKLLIYEVTKRPSGVPDRFSGSKSGNTASLTVSGLQAEDEADYYCSSYAGSNNVMFGGGTKLTVLGQPKAAPSVTLFPPSSEELQANKATLVCLISDFYPGAVTVAWKADSSPVKAGVETTTPSKQSNNKYAASSYLSLTPEQWKSHRSYSCQVTHEGSTVEKTVAPTECS
notes: Fab-arm exchange of IgG1-b12-FERL and IgG1-DR4-FERR; also called bsIgG1-ctrl-FERLxDR4-FERR
With B1, the results for the concentration for a half-maximal effect (EC50) in test [1] and in test [2] were 0.64 µg/mL and 0.68 µg/mL, respectively.
